B1: mouse secretagogin [mouse] / helix-b of the Habc domain of mouse syntaxin-4 [mouse] (parent complex)
chain 1: MDNARRKTPARLDAACFWQIWQRFDKEEKGYIRETELDAFFDHLLAKSGTEDTLMEENVQKVKEQLMTSHNVSKEGRILMKELASMFLSEDENFLLFFRLETPLDNSVEFMQIWRKYDADSSGFISAAELCNFLRDLFLHHKKNISEAELEEYTSTMMKIFDKNKDGRLDLNDLARILALQENFLLQFKMDASSTEERKRDFEKIFAHYDVSKTGALEGPEVDGFVKDMMELVQPSISGVDLDKFREILLRHCDVNKDGKIQKSELALCLGLKINP
chain 2: TPLPEESMKQGLQNLREEIKQLGREVRAQLKAIEPQKE

Variants of: B1
Experiment: ITC
Work on chain 1 MDNARRKTPARLDAACFWQIWQRFDKEEKGYIRETELDAFFDHLLAKSGTEDTLMEENVQKVKEQLMTSHNVSKEGRILMKELASMFLSEDENFLLFFRLETPLDNSVEFMQIWRKYDADSSGFISAAELCNFLRDLFLHHKKNISEAELEEYTSTMMKIFDKNKDGRLDLNDLARILALQENFLLQFKMDASSTEERKRDFEKIFAHYDVSKTGALEGPEVDGFVKDMMELVQPSISGVDLDKFREILLRHCDVNKDGKIQKSELALCAGLKINP [chain 1 L270A] yielded a Kd of 16.2 µM.
